Patent publication EP1175513B1, “MinK-RELATED GENES, FORMATION OF POTASSIUM [sequence] AND ASSOCIATION WITH CARDIAC [sequence]” (The University of Utah Research Foundation, priority 1999, dated 2000)

B1: rMiRP1 (other)
chain: MTTLANLTQTLEDAFKKVFITYMDSWRRNTTAEQQALQARVDAENFYYVILYLMVMIGMFAFIVVAILVSTVKSKRREHSQDPYHQYIVEDWQQKYRSQILHLEDSKATIHENLGATGFTVSP

Key:
[1] = target: HERG (human, UniProt Q12809 1-1159); test: cell-based or functional assay
[2] = human, in vivo, po
Description: To test the hypothesis that MiRP1 mutants cause cardiac arrhythmia, we screened a panel of 20 patients with drug-induced arrhythmia and 230 patients with inherited or sporadic arrhythmias and no mutations in their KVLQT1, HERG, SCN5A or KCNE1 genes.
Q9E-hMiRP1. […] The patient is a person with a history of high blood pressure, non-insulin dependent diabetes and stroke. […] The patient was admitted to the hospital with pneumonia and treated with 7 doses of intravenous erythromycin, 500 mg every 6 hours and then switched to oral clarithromycin, 500 mg every 12 hours.

[3] = target: T1, channels formed with Q9E-hMiRP1 (Homo sapiens, UniProt Q12809); test: in vitro; conditions: cho cells
[4] = target: channels formed with wild type hMiRP1 (Homo sapiens, UniProt Q12809); test: Clarithromycin blockade of channels expressed in CHO cells; conditions: effect of clarithromycin (Fig. 9C)
[5] = target: T1, channels formed with Q9E-hMiRP1; test: as above; conditions: effect of clarithromycin (Fig. 9C)

T1 sequence (Q12809 whole entry): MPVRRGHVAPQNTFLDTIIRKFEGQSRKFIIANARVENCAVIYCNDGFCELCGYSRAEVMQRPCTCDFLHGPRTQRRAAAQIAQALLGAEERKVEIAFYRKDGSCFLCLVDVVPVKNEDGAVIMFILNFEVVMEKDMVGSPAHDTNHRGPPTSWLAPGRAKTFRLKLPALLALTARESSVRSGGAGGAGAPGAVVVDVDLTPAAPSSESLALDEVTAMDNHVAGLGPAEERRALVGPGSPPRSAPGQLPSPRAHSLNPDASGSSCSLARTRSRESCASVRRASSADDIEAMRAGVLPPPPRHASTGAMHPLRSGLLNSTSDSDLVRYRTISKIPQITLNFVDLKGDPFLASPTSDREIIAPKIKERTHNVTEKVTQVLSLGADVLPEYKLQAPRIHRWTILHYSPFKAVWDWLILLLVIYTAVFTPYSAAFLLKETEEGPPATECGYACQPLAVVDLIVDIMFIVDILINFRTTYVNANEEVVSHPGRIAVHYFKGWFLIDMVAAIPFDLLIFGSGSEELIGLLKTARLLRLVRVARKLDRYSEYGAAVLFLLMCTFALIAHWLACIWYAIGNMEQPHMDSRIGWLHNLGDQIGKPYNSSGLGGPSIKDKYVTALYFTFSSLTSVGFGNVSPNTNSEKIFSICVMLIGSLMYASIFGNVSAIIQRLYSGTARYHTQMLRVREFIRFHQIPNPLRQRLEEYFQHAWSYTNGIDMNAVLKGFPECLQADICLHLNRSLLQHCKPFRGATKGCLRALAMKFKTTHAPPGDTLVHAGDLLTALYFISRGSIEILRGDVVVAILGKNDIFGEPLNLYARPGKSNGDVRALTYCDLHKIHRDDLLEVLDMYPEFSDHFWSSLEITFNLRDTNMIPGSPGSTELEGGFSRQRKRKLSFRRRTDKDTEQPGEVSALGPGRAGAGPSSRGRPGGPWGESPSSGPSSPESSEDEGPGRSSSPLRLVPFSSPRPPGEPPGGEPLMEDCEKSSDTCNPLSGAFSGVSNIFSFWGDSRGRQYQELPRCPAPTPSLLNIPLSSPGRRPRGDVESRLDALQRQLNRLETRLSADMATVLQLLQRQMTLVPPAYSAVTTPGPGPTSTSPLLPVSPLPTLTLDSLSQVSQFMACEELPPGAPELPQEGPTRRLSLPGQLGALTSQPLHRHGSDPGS
T1 sequence (Q9Y6J6 with tags, fused parts or gaps Q9E partner): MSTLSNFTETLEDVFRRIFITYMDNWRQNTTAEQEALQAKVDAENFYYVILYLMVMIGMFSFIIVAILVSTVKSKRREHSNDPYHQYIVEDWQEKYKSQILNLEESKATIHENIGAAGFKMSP
Sequence of channels formed with wild type hMiRP1 (Q12809 whole entry): as the sequence (Q12809 whole entry) above
Sequence of channels formed with wild type hMiRP1 (Q9Y6J6 whole entry partner): as the sequence (Q9Y6J6 with tags, fused parts or gaps Q9E partner) above, with E9Q counted along it

Row | Molecule | activation V1/2 in 1 mM Ca^2+, 1 mM KCl solution [1] | activation V1/2 mV [1] | deactivation ratio If/(Is + If) [1] | deactivation τf s [1] | deactivation τs, s [1] | other results
1 | Q9E-hMiRP1 (from UniProt Q9Y6J6 1-123) | -12 mV | -12 mV | 0.8 | 100 ms | 750 | 
2 | T8A-hMiRP1 (from UniProt Q9Y6J6 1-123) |  | -29 mV | 0.83 | 100 ms | 590 | 
3 | wild type human MiRP1 (from UniProt Q9Y6J6 1-123) | -20 mV | -21 mV | 0.82 | 80 ms | 483 | faster deactivation against HERG alone (τf at -120 mV) [1]: 3 fold; unitary conductance (oocytes) [1]: 8 pS
4 | M54T-hMiRP1 (from UniProt Q9Y6J6 1-123) |  | -21 mV | 0.81 | 37 ms | 266 | faster deactivation against wild type hMiRP1 channels [1]: 3 fold
5 | CC[C@H]1OC(=O)[C@H](C)[C@@H](O[C@H]2C[C@@](C)(OC)[C@@H](O)[C@H](C)O2)[C@H](C)[C@@H](O[C@@H]2O[C@H](C)C[C@H](N(C)C)[C@H]2O)[C@](C)(OC)C[C@@H](C)C(=O)[C@H](C)[C@@H](O)[C@]1(C)O [clarithromycin] |  |  |  |  |  | arrhythmia developed [2]: TdP and VF; selectivity ratio [3]: 3; slope factor [4]: no change; slope factor [5]: no change
6 | B1 |  |  |  |  |  | acceleration of single-channel deactivation [1]: 2.3 fold; increase in deactivation rate against HERG alone [1]: 7 fold; increase in deactivation rate, plasma-like solution [1]: ~2 fold
